Kd data for two molecules are collected here from paper PMC4115224, “Real-Time Interaction between TBP and the TATA Box of the Human Triosephosphate Isomerase Gene Promoter in the Norm and Pathology”.

For data set [1], the target named is T1, TATA-binding protein (TBP) (human, UniProt P20226 1-339). In words: stopped-flow FRET; kon (1.1 ± 0.1)e6 M-1 s-1; koff (2.8 ± 0.1)e-3 s-1; KA 3.7e8 M-1; 25 C; 25 C; 0.1 uM DNA duplex; TBP 0.1-2 uM (T allele) or 0.4-4 uM (G allele); buffer, salt and pH not given in the material. The settings on record: protein: recombinant; label: Cy3/Cy5 FRET pair at the duplex ends.
T1 sequence (P20226 whole entry): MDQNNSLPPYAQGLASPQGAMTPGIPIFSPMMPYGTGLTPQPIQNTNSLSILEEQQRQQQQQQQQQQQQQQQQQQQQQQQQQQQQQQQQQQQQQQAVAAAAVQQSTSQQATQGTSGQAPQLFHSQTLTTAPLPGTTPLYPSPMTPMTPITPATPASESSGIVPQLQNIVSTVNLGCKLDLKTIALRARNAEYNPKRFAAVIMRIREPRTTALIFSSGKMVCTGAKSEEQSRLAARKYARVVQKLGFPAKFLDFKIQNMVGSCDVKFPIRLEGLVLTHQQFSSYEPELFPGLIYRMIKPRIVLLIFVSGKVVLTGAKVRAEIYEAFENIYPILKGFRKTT

The target in data set [2] is T1, TATA-binding protein (TBP). In words: stopped-flow FRET; kon (0.2 ± 0.1)e6 M-1 s-1; koff (8.9 ± 1.2)e-2 s-1; KA 2.3e6 M-1; 25 C; 25 C; 0.1 uM DNA duplex; TBP 0.1-2 uM (T allele) or 0.4-4 uM (G allele); buffer, salt and pH not given in the material. Conditions: protein: recombinant; label: Cy3/Cy5 FRET pair at the duplex ends.

B1: TPI TATA box, wild type (T allele) (dsDNA)
DNA 1: GCTCTATATAAGTGG
DNA 2: CCACTTATATAGAGC
Turning to B1, the Kd in data set [1] was determined as 2.7 nM.

B2: TPI TATA box, -24T>G SNP (G allele) (dsDNA)
DNA 1: GCTCTATAGAAGTGG
DNA 2: CCACTTCTATAGAGC
For B2, the Kd in data set [2] came out at 400 nM.

The term Kd denotes the constant that tells how readily two partners part at equilibrium.
